The results in this text go back to patent US20260242478A1 (published 2026).

Test [1] deals with T1, PSMA Fab (006 PSMA Fab), biotinylated (biotinylated (site and chain not stated)).
T1 construct: also called Anti-PSMA Fab; anti-PSMA Fab
The experiment in a line: phage ELISA; biotinylated PSMA Fab on neutravidin plate, wells first incubated with PSMA antigen as competitor, HRP anti-M13 detection. For orientation: An ELISA detects its analyte on a solid surface through an enzyme-linked reagent.

For test [2], the target named is T1, PSMA Fab (006 PSMA Fab), biotinylated. The test is described as follows: phage ELISA; biotinylated PSMA Fab on neutravidin plate, blocking buffer alone, bound phage detected with HRP anti-M13 antibody.
Experimental: (§1) Clonal phage were harvested as crude supernatants and screened via standard ELISAs. […] Prior to the addition of clonal phage. wells were incubated with blocking buffer and PSMA antigen or blocking buffer alone. Without washing or aspirating, clonal phage supernatants were then added to the wells and incubated for a short time. Wells were then washed followed by detection of bound phage using a horse radish conjugated anti-M13 antibody.
The target of test [3] is T2, PSMA Fab (SEQ ID NOs: 19, 20) (biotinylated (site not stated)).
T2 construct: In the phage ELISA the biotinylated PSMA Fab was captured on neutravidin coated plates; also called Anti-PSMA Fab; 006 PSMA Fab
The test is described as follows: clonal phage ELISA on captured biotinylated PSMA Fab, anti-M13-HRP detection, competitor: PSMA antigen pre-incubated.

The target in test [4] is T2, PSMA Fab (SEQ ID NOs: 19, 20). The experiment in a line: clonal phage ELISA on captured biotinylated PSMA Fab, anti-M13-HRP detection, no PSMA antigen.
Experimental: as §1
The target of test [5] is T3, PSMA Fab (006 PSMA Fab).
T3 construct: also called Anti-PSMA Fab; anti-PSMA Fab
The test is described as follows: clonal phage ELISA on biotinylated PSMA Fab captured on neutravidin, blocking buffer alone, anti-M13 HRP detection.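 Further: clonal phage were tested as crude supernatants, and the signal reflects phage still bound to the wells after washing.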
Experimental: as §1

Test [6] has as its target T3, PSMA Fab (006 PSMA Fab). The experiment in a line: clonal phage ELISA on captured PSMA Fab, wells pre-incubated with PSMA antigen as competitor.
Experimental: as §1
The target of test [7] is T4, PSMA Fab (biotinylated (site not stated)).
T4 construct: Biotinylated PSMA Fab captured on neutravidin coated plates in the phage ELISA; also called Anti-PSMA Fab; 006 PSMA Fab
The test is described as follows: clonal phage ELISA on captured PSMA Fab, competitor PSMA antigen pre-incubated.

The target of test [8] is T4, PSMA Fab. The experiment in a line: clonal phage ELISA on biotinylated PSMA Fab captured on neutravidin, anti-M13 HRP detection.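 Further: crude clonal phage supernatants added to wells pretreated with PSMA antigen in blocking buffer or with blocking buffer only, then briefly incubated.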
Experimental: as §1

Where no end group is shown, it is not given here.

B1: Phage-3612, clonal phage showing a Peptide-180 library peptide (peptide)
peptide: DPVMCMPRWMCDGF
notes: Tested as crude clonal phage supernatant; not shown: pIII filament protein of the bacteriophage, fused to the peptide
With B1, the “Phage binding ELISA signal, Anti-PSMA Fab with PSMA antigen” value in test [1] is 0.0916. In addition, in test [2], the “Phage binding ELISA signal, Anti-PSMA Fab” value was found to be 1.57.

B2: Phage-3609, clonal phage showing a Peptide-180 library peptide (peptide)
peptide: SHMVCKPTWMCQGF
notes: as for B1
For B2, the “Phage binding ELISA signal, Anti-PSMA Fab with PSMA antigen” value in test [1] amounted to 0.074. The “Phage binding ELISA signal, Anti-PSMA Fab” value in test [2] was determined as 1.58.

B3: Phage-3644 (peptide)
peptide: PNILCKPQWMCAGF
Take B3: the “phage binding ELISA signal” value was determined as 0.0825 in test [3] and 1.52 in test [4].

B4: Phage-3607, clonal phage showing a Peptide-180 library peptide (peptide)
peptide: LDIVCRPSWMCYGF
notes: as for B1
In the case of B4, the “Phage binding ELISA signal, Anti-PSMA Fab with PSMA antigen” value in test [1] worked out at 0.0774. Further, the “Phage binding ELISA signal, Anti-PSMA Fab” value in test [2] turned out to be 1.58.

B5: Phage-3617, clonal phage showing a Peptide-180 library peptide (peptide)
peptide: DFIRCSPIWMCDGF
notes: as for B1
Turning to B5, in test [1], the “Phage binding ELISA signal, Anti-PSMA Fab with PSMA antigen” value is 0.0807. The “Phage binding ELISA signal, Anti-PSMA Fab” value in test [2] is 1.57.

B6: Phage-3611, clonal phage showing a Peptide-180 library peptide (peptide)
peptide: VDRLCMPIWMCEGL
notes: as for B1
As to B6, the “Phage binding ELISA signal, Anti-PSMA Fab with PSMA antigen” value in test [1] was 0.0788. The “Phage binding ELISA signal, Anti-PSMA Fab” value in test [2] was 1.58.

B7: Phage-3636 (peptide)
peptide: VEPLCRPTWMCMSL
B7: the entries for the “phage binding ELISA signal” value in test [3] and in test [4] were 0.0766 and 1.53, respectively.

B8: Phage-3614, clonal phage showing a Peptide-180 library peptide (peptide)
peptide: GWEWCIPEWMCTGL
notes: as for B1
Regarding B8, the “Phage binding ELISA signal, Anti-PSMA Fab with PSMA antigen” value in test [1] is 0.0625. The “Phage binding ELISA signal, Anti-PSMA Fab” value in test [2] was 1.57.

B9: Phage-3637 (peptide)
peptide: AEVKCIPTWMCTGF
As to B9, the “phage binding ELISA signal” value was 0.079 in test [3] and 1.53 in test [4].

B10: Phage-3604, clonal phage showing a Peptide-180 library peptide (peptide)
peptide: HVAMCQPTWMCMGF
modifications: cysteine pairing not given here; also: fused to pIII of bacteriophage, junction and order not given here
notes: as for B1
For the molecule B10, the “Phage binding ELISA signal, Anti-PSMA Fab with PSMA antigen” value in test [1] amounted to 0.123. For the same molecule, the “Phage binding ELISA signal, Anti-PSMA Fab” value in test [2] was 1.58.

B11: Phage-3616, clonal phage showing a Peptide-180 library peptide (peptide)
peptide: ESRLCVPMWMCSGF
notes: as for B1
As to B11, the “Phage binding ELISA signal, Anti-PSMA Fab with PSMA antigen” value in test [1] was 0.0707. In test [2], the “Phage binding ELISA signal, Anti-PSMA Fab” value was found to be 1.57.

B12: Phage-3615, clonal phage showing a Peptide-180 library peptide (peptide)
peptide: LDRLCLPQWMCVGM
notes: as for B1
In the case of B12, the “Phage binding ELISA signal, Anti-PSMA Fab with PSMA antigen” value in test [1] was 0.0704. In addition, the “Phage binding ELISA signal, Anti-PSMA Fab” value in test [2] is 1.57.

B13: Phage-3605, clonal phage showing a Peptide-180 library peptide (peptide)
peptide: WTFKCEPVWMCEGF
notes: as for B1
Take B13: the “Phage binding ELISA signal, Anti-PSMA Fab with PSMA antigen” value in test [1] worked out at 0.101. Further, the “Phage binding ELISA signal, Anti-PSMA Fab” value in test [2] stood at 1.58.

B14: Phage-3645 (Peptide-180 library clone) (peptide)
peptide: VDVRCMPLWMCSGF
As for B14, the “phage binding ELISA signal on anti-PSMA Fab” value with PSMA Fab (006 PSMA Fab) [5] stood at 1.52. Moreover, the “phage binding ELISA signal on anti-PSMA Fab in presence of PSMA” value (“phage binding ELISA signal … of PSMA” below) with PSMA Fab (006 PSMA Fab) [6] stood at 0.0628.

B15: Phage-3647 (Peptide-180 library clone) (peptide)
peptide: MVPVCIPLWMCSGF
As to B15, the “phage binding ELISA signal on anti-PSMA Fab” value with PSMA Fab (006 PSMA Fab) [5] was found to be 1.51. The “phage binding ELISA signal … of PSMA” value with PSMA Fab (006 PSMA Fab) [6] is 0.0744.

B16: Phage-3633 (peptide)
peptide: SHALCRPAWMCMGL
For the molecule B16, the “phage binding ELISA signal” value in test [3] amounted to 0.0783; in test [4], 1.54.

B17: Phage-3603 (peptide)
peptide: EGLRCVPAWMCAGF
As for B17, in the test with PSMA Fab [7], the “Phage binding ELISA signal, Anti-PSMA Fab with PSMA antigen” value worked out at 0.0633. Further, the “Phage binding ELISA signal, Anti-PSMA Fab” value with PSMA Fab [8] worked out at 1.58.

B18: Phage-3646 (Peptide-180 library clone) (peptide)
peptide: TAVMCIPYWMCGGM
B18: the “phage binding ELISA signal on anti-PSMA Fab” value with PSMA Fab (006 PSMA Fab) [5] worked out at 1.52. For the same molecule, the “phage binding ELISA signal … of PSMA” value in the test with PSMA Fab (006 PSMA Fab) [6] is 0.104.

B19: Phage-3634 (peptide)
peptide: GTTWCVPTWMCEGL
Turning to B19, the “phage binding ELISA signal” value in test [3] is 0.077; in test [4], 1.54.

B20: Phage-3635 (peptide)
peptide: EVAMCKPLWMCSGF
As for B20, the “phage binding ELISA signal” value worked out at 0.069 in test [3] and 1.53 in test [4].

B21: Phage-3641 (peptide)
peptide: SNMVCIPSWMCNGF
For B21, the “phage binding ELISA signal” value was found to be 0.0754 in test [3] and 1.53 in test [4].

B22: Phage-3632 (peptide)
peptide: ELILCRPSWMCTGL
Turning to B22, the “phage binding ELISA signal” value in test [3] amounted to 0.0672; in test [4] it was 1.54.

B23: Phage-3610, clonal phage showing a Peptide-180 library peptide (peptide)
peptide: VQPACVPIWMCDGL
notes: as for B1
Consider B23, for which the “Phage binding ELISA signal, Anti-PSMA Fab with PSMA antigen” value in test [1] turned out to be 0.0782. Moreover, in test [2], the “Phage binding ELISA signal, Anti-PSMA Fab” value was determined as 1.58.

B24: Phage-3648 (Peptide-180 library clone) (peptide)
peptide: PLVLCIPQWMCQAM
For the molecule B24, in the test with PSMA Fab (006 PSMA Fab) [5], the “phage binding ELISA signal on anti-PSMA Fab” value was 1.51. In addition, the “phage binding ELISA signal … of PSMA” value with PSMA Fab (006 PSMA Fab) [6] is 0.0663.

B25: Phage-3643 (peptide)
peptide: ADRVCKPAWMCDLF
For the molecule B25, the “phage binding ELISA signal” value was determined as 0.0527 in test [3] and 1.52 in test [4].

B26: Phage-3640 (peptide)
peptide: FPAMCKPSWMCTGF
Regarding B26, the “phage binding ELISA signal” value is 0.082 in test [3] and 1.53 in test [4].

B27: Phage-3639 (peptide)
peptide: YPPLCVPMWMCNGF
For B27, the “phage binding ELISA signal” value is 0.107 in test [3] and 1.53 in test [4].

B28: Phage-3642 (peptide)
peptide: VTMKCQPMWMCQGL
Take B28: the “phage binding ELISA signal” value in test [3] was found to be 0.0738; in test [4], 1.52.

B29: Phage-3606, clonal phage showing a Peptide-180 library peptide (peptide)
peptide: VVVSCTPSWMCTGL
notes: as for B1
In the case of B29, the “Phage binding ELISA signal, Anti-PSMA Fab with PSMA antigen” value in test [1] amounted to 0.0718. Further, the “Phage binding ELISA signal, Anti-PSMA Fab” value in test [2] is 1.58.

B30: Phage-3631 (peptide)
peptide: LVNYCIPPWMCAGF
B30: the “phage binding ELISA signal” value came to 0.093 in test [3] and 1.54 in test [4].

B31: Phage-3608, clonal phage showing a Peptide-180 library peptide (peptide)
peptide: ETVRCIPSWMCTGL
notes: as for B1
Consider B31, for which the “Phage binding ELISA signal, Anti-PSMA Fab with PSMA antigen” value in test [1] was 0.0717. For the same molecule, in test [2], the “Phage binding ELISA signal, Anti-PSMA Fab” value worked out at 1.58.

B32: Phage-3638 (peptide)
peptide: VHQLCIPVWMCSGF
Regarding B32, the “phage binding ELISA signal” value in test [3] worked out at 0.0996; in test [4], 1.53.

B33: Phage-3613, clonal phage showing a Peptide-180 library peptide (peptide)
peptide: ETMRCEPSWMCIGL
notes: as for B1
On to B33, for which the “Phage binding ELISA signal, Anti-PSMA Fab with PSMA antigen” value in test [1] is 0.0724. Moreover, the “Phage binding ELISA signal, Anti-PSMA Fab” value in test [2] is 1.57.
